This assay concerns the target poly(A)-binding protein (PABP), P11940. The assay is described as follows: co-immunoprecipitation with anti-FLAG antibody, Western blot quantified with ImageJ. The following applies: chain shown with the change, HeLa cells, parent: est. 1.0, read off a plot. On the technique in general: A western blot detects proteins with antibodies after separation by electrophoresis.

poly(A)-binding protein (PABP), P11940, sequence (P11940 whole entry): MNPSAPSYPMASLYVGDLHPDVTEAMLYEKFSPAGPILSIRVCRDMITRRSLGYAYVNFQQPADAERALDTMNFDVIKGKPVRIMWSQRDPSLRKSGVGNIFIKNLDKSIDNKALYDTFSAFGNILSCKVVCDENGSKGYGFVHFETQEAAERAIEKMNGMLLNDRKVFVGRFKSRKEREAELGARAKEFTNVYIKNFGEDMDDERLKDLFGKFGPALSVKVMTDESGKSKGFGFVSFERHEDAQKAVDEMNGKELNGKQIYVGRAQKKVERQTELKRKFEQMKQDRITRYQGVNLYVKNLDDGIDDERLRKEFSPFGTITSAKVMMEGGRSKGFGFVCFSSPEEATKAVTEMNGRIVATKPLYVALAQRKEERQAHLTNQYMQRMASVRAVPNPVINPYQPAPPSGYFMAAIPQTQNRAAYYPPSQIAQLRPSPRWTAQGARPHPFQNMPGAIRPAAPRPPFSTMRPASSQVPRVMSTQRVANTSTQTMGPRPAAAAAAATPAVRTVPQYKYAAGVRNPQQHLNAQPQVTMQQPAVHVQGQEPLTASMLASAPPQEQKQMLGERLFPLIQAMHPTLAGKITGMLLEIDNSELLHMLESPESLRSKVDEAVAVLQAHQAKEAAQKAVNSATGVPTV

B1: FLAG-HA-SBP (FHS)-tagged full-length TNRC6A, wild type, Q8NDV7-2 S1616A; S1691A (protein)
chain: MDADSASSSESERNITIMASGNTGGEKDGLRNSTGLGSQNKFVVGSSSNNVGHGSSTGPWGFSHGAIISTCQVSVDAPESKSESSNNRMNAWGTVSSSSNGGLNPSTLNSASNHGAWPVLENNGLALKGPVGSGSSGINIQCSTIGQMPNNQSINSKVSGGSTHGTWGSLQETCESEVSGTQKVSFSGQPQNITTEMTGPNNTTNFMTSSLPNSGSVQNNELPSSNTGAWRVSTMNHPQMQAPSGMNGTSLSHLSNGESKSGGSYGTTWGAYGSNYSGDKCSGPNGQANGDTVNATLMQPGVNGPMGTNFQVNTNKGGGVWESGAANSQSTSWGSGNGANSGGSRRGWGTPAQNTGTNLPSVEWNKLPSNQHSNDSANGNGKTFTNGWKSTEEEDQGSATSQTNEQSSVWAKTGGTVESDGSTESTGRLEEKGTGESQSRDRRKIDQHTLLQSIVNRTDLDPRVLSNSGWGQTPIKQNTAWDTETSPRGERKTDNGTEAWGSSATQTFNSGACIDKTSPNGNDTSSVSGWGDPKPALRWGDSKGSNCQGGWEDDSAATGMVKSNQWGNCKEEKAAWNDSQKNKQGWGDGQKSSQGWSVSASDNWGETSRNNHWGEANKKSSSGGSDSDRSVSGWNELGKTSSFTWGNNINPNNSSGWDESSKPTPSQGWGDPPKSNQSLGWGDSSKPVSSPDWNKQQDIVGSWGIPPATGKPPGTGWLGGPIPAPAKEEEPTGWEEPSPESIRRKMEIDDGTSAWGDPSKYNYKNVNMWNKNVPNGNSRSDQQAQVHQLLTPASAISNKEASSGSGWGEPWGEPSTPATTVDNGTSAWGKPIDSGPSWGEPIAAASSTSTWGSSSVGPQALSKSGPKSMQDGWCGDDMPLPGNRPTGWEEEEDVEIGMWNSNSSQELNSSLNWPPYTKKMSSKGLSGKKRRRERGMMKGGNKQEEAWINPFVKQFSNISFSRDSPEENVQSNKMDLSGGMLQDKRMEIDKHSLNIGDYNRTVGKGPGSRPQISKESSMERNPYFDKDGIVADESQNMQFMSSQSMKLPPSNSALPNQALGSIAGLGMQNLNSVRQNGNPSMFGVGNTAAQPRGMQQPPAQPLSSSQPNLRAQVPPPLLSPQVPVSLLKYAPNNGGLNPLFGPQQVAMLNQLSQLNQLSQISQLQRLLAQQQRAQSQRSVPSGNRPQQDQQGRPLSVQQQMMQQSRQLDPNLLVKQQTPPSQQQPLHQPAMKSFLDNVMPHTTPELQKGPSPINAFSNFPIGLNSNLNVNMDMNSIKEPQSRLRKWTTVDSISVNTSLDQNSSKHGAISSGFRLEESPFVPYDFMNSSTSPASPPGSIGDGWPRAKSPNGSSSVNWPPEFRPGEPWKGYPNIDPETDPYVTPGSVINNLSINTVREVDHLRDRNSGSSSSLNTTLPSTSAWSSIRASNYNVPLSSTAQSTSARNSDSKLTWSPGSVTNTSLAHELWKVPLPPKNITAPSRPPPGLTGQKPPLSTWDNSPLRIGGGWGNSDARYTPGSSWGESSSGRITNWLVLKNLTPQIDGSTLRTLCMQHGPLITFHLNLPHGNALVRYSSKEEVVKAQKSLHMCVLGNTTILAEFASEEEISRFFAQSQSLTPAPGWQSLGSSQSRLGSLDCSHSFSSRTDLNHWNGAGLSGTNCGDLHGTSLWGTPHYSTSLWGPPSSSDPRGISSPAPINAFLSVDHLGGGGESM
Regarding B1, the response (two independent experiments) was 0.89.

B2: FLAG-HA-SBP (FHS)-tagged full-length TNRC6A, wild type, Q8NDV7-2 S1332A; S1346A (protein)
chain: MDADSASSSESERNITIMASGNTGGEKDGLRNSTGLGSQNKFVVGSSSNNVGHGSSTGPWGFSHGAIISTCQVSVDAPESKSESSNNRMNAWGTVSSSSNGGLNPSTLNSASNHGAWPVLENNGLALKGPVGSGSSGINIQCSTIGQMPNNQSINSKVSGGSTHGTWGSLQETCESEVSGTQKVSFSGQPQNITTEMTGPNNTTNFMTSSLPNSGSVQNNELPSSNTGAWRVSTMNHPQMQAPSGMNGTSLSHLSNGESKSGGSYGTTWGAYGSNYSGDKCSGPNGQANGDTVNATLMQPGVNGPMGTNFQVNTNKGGGVWESGAANSQSTSWGSGNGANSGGSRRGWGTPAQNTGTNLPSVEWNKLPSNQHSNDSANGNGKTFTNGWKSTEEEDQGSATSQTNEQSSVWAKTGGTVESDGSTESTGRLEEKGTGESQSRDRRKIDQHTLLQSIVNRTDLDPRVLSNSGWGQTPIKQNTAWDTETSPRGERKTDNGTEAWGSSATQTFNSGACIDKTSPNGNDTSSVSGWGDPKPALRWGDSKGSNCQGGWEDDSAATGMVKSNQWGNCKEEKAAWNDSQKNKQGWGDGQKSSQGWSVSASDNWGETSRNNHWGEANKKSSSGGSDSDRSVSGWNELGKTSSFTWGNNINPNNSSGWDESSKPTPSQGWGDPPKSNQSLGWGDSSKPVSSPDWNKQQDIVGSWGIPPATGKPPGTGWLGGPIPAPAKEEEPTGWEEPSPESIRRKMEIDDGTSAWGDPSKYNYKNVNMWNKNVPNGNSRSDQQAQVHQLLTPASAISNKEASSGSGWGEPWGEPSTPATTVDNGTSAWGKPIDSGPSWGEPIAAASSTSTWGSSSVGPQALSKSGPKSMQDGWCGDDMPLPGNRPTGWEEEEDVEIGMWNSNSSQELNSSLNWPPYTKKMSSKGLSGKKRRRERGMMKGGNKQEEAWINPFVKQFSNISFSRDSPEENVQSNKMDLSGGMLQDKRMEIDKHSLNIGDYNRTVGKGPGSRPQISKESSMERNPYFDKDGIVADESQNMQFMSSQSMKLPPSNSALPNQALGSIAGLGMQNLNSVRQNGNPSMFGVGNTAAQPRGMQQPPAQPLSSSQPNLRAQVPPPLLSPQVPVSLLKYAPNNGGLNPLFGPQQVAMLNQLSQLNQLSQISQLQRLLAQQQRAQSQRSVPSGNRPQQDQQGRPLSVQQQMMQQSRQLDPNLLVKQQTPPSQQQPLHQPAMKSFLDNVMPHTTPELQKGPSPINAFSNFPIGLNSNLNVNMDMNSIKEPQSRLRKWTTVDSISVNTSLDQNSSKHGAISSGFRLEESPFVPYDFMNSSTSPAAPPGSIGDGWPRAKAPNGSSSVNWPPEFRPGEPWKGYPNIDPETDPYVTPGSVINNLSINTVREVDHLRDRNSGSSSSLNTTLPSTSAWSSIRASNYNVPLSSTAQSTSARNSDSKLTWSPGSVTNTSLAHELWKVPLPPKNITAPSRPPPGLTGQKPPLSTWDNSPLRIGGGWGNSDARYTPGSSWGESSSGRITNWLVLKNLTPQIDGSTLRTLCMQHGPLITFHLNLPHGNALVRYSSKEEVVKAQKSLHMCVLGNTTILAEFASEEEISRFFAQSQSLTPSPGWQSLGSSQSRLGSLDCSHSFSSRTDLNHWNGAGLSGTNCGDLHGTSLWGTPHYSTSLWGPPSSSDPRGISSPSPINAFLSVDHLGGGGESM
In the case of B2, under “two independent experiments”, the response was found to be 1.7.

B3: FLAG-HA-SBP (FHS)-tagged TNRC6A-SD-WT, Q8NDV7-2 S1616A; S1691A (protein)
chain: PLHQPAMKSFLDNVMPHTTPELQKGPSPINAFSNFPIGLNSNLNVNMDMNSIKEPQSRLRKWTTVDSISVNTSLDQNSSKHGAISSGFRLEESPFVPYDFMNSSTSPASPPGSIGDGWPRAKSPNGSSSVNWPPEFRPGEPWKGYPNIDPETDPYVTPGSVINNLSINTVREVDHLRDRNSGSSSSLNTTLPSTSAWSSIRASNYNVPLSSTAQSTSARNSDSKLTWSPGSVTNTSLAHELWKVPLPPKNITAPSRPPPGLTGQKPPLSTWDNSPLRIGGGWGNSDARYTPGSSWGESSSGRITNWLVLKNLTPQIDGSTLRTLCMQHGPLITFHLNLPHGNALVRYSSKEEVVKAQKSLHMCVLGNTTILAEFASEEEISRFFAQSQSLTPAPGWQSLGSSQSRLGSLDCSHSFSSRTDLNHWNGAGLSGTNCGDLHGTSLWGTPHYSTSLWGPPSSSDPRGISSPAPINAFLSVDHLGGGGESM
For the molecule B3, the response (three independent experiments) came to 0.81.

B4: FLAG-HA-SBP (FHS)-tagged TNRC6A-SD-WT, Q8NDV7-2 S1332D; S1346D (protein)
chain: PLHQPAMKSFLDNVMPHTTPELQKGPSPINAFSNFPIGLNSNLNVNMDMNSIKEPQSRLRKWTTVDSISVNTSLDQNSSKHGAISSGFRLEESPFVPYDFMNSSTSPADPPGSIGDGWPRAKDPNGSSSVNWPPEFRPGEPWKGYPNIDPETDPYVTPGSVINNLSINTVREVDHLRDRNSGSSSSLNTTLPSTSAWSSIRASNYNVPLSSTAQSTSARNSDSKLTWSPGSVTNTSLAHELWKVPLPPKNITAPSRPPPGLTGQKPPLSTWDNSPLRIGGGWGNSDARYTPGSSWGESSSGRITNWLVLKNLTPQIDGSTLRTLCMQHGPLITFHLNLPHGNALVRYSSKEEVVKAQKSLHMCVLGNTTILAEFASEEEISRFFAQSQSLTPSPGWQSLGSSQSRLGSLDCSHSFSSRTDLNHWNGAGLSGTNCGDLHGTSLWGTPHYSTSLWGPPSSSDPRGISSPSPINAFLSVDHLGGGGESM
As for B4, for the setting “three independent experiments”, the response was found to be 1.1.

B5: FLAG-HA-SBP (FHS)-tagged TNRC6A-SD-WT, Q8NDV7-2 S1332A; S1346A (protein)
chain: PLHQPAMKSFLDNVMPHTTPELQKGPSPINAFSNFPIGLNSNLNVNMDMNSIKEPQSRLRKWTTVDSISVNTSLDQNSSKHGAISSGFRLEESPFVPYDFMNSSTSPAAPPGSIGDGWPRAKAPNGSSSVNWPPEFRPGEPWKGYPNIDPETDPYVTPGSVINNLSINTVREVDHLRDRNSGSSSSLNTTLPSTSAWSSIRASNYNVPLSSTAQSTSARNSDSKLTWSPGSVTNTSLAHELWKVPLPPKNITAPSRPPPGLTGQKPPLSTWDNSPLRIGGGWGNSDARYTPGSSWGESSSGRITNWLVLKNLTPQIDGSTLRTLCMQHGPLITFHLNLPHGNALVRYSSKEEVVKAQKSLHMCVLGNTTILAEFASEEEISRFFAQSQSLTPSPGWQSLGSSQSRLGSLDCSHSFSSRTDLNHWNGAGLSGTNCGDLHGTSLWGTPHYSTSLWGPPSSSDPRGISSPSPINAFLSVDHLGGGGESM
Take B5: the response (three independent experiments) stood at 1.4.

Values taken from article PMC7917804.
